Results taken from US20240209083A1.

Assays:
[1] = biological target: human TIM3 (isoform 1), membrane bound (human) (UniProt Q8TDQ0); assay: flow cytometry, lung cancer TILs, CD4+ cells (upper panel), isotype staining
[2] = biological target: human TIM3 (isoform 1), membrane bound (human) (UniProt Q8TDQ0); assay: flow cytometry, lung cancer TILs, CD8+ cells (lower panel), isotype staining
mouse TIM3 (mouse) = mouse TIM3 (mouse) (UniProt Q8VIM0); assay: binding to activated mouse T cells (method not given)
Chain of mouse TIM3 (mouse) (Q8VIM0 20-281): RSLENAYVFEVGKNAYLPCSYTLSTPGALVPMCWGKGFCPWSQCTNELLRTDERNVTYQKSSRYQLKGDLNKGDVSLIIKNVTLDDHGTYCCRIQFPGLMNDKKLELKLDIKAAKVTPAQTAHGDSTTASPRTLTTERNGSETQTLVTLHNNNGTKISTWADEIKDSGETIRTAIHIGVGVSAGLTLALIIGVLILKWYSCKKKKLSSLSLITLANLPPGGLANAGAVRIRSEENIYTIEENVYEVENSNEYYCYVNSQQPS

| % of cells in the quadrant PE isotype positive, APC isotype negative [1] [%] | % of cells in the quadrant PE isotype positive, APC isotype negative [2] [%] | EC50 (mouse TIM3 (mouse)) [nM] | fold weaker EC50 than TIM3.18 binding to human TIM-3 (mouse TIM3 (mouse)) [fold] | Substance |
| --- | --- | --- | --- | --- |
| 2.94 | 3.09 |  |  | Isotype (Comp-PE-A :: Isotype) (antibody) |
|  |  | 1.7 | 17 | rat anti-mouse TIM-3 antibody RMT3-23 |
